{"source": "paper PMC6402988", "biological_target": "rVSV-EBOV GPΔβ17-β18 (Zaire ebolavirus (EBOV)) (UniProt Q05320)"}
{"substance": "ADI-15946 IgG (antibody)", "values": [{"measurement": "neutralization efficiency of rVSV-EBOV GPΔβ17-β18 compared to GPWT", "value": 10, "unit": "fold"}]}
